Test results reported in article PMC5384747, “Characterization and mutational analysis of a nicotinamide mononucleotide deamidase from Agrobacterium tumefaciens showing high thermal stability and catalytic efficiency” (PLoS ONE, 2017).

B1: AtCinA (NMN deamidase) (Agrobacterium fabrum str. C58) (protein)
chain: MSLFPGDIEELARRIITDFTPLGLMVSTAESCTGGLIAGALTEIAGSSAVVDRGFVTYTNDAKRDMLGVGTETLTTFGAVSRQTALQMAHGALYRSRANFAVAVTGIAGPGGGSAEKPVGLVHLATKARNGNVLHHEMRYGDIGRTEIRLATVRTALEMLIALNQAGSV
notes: full length (169 residues, synthetic 510 bp gene), C-terminal His tag (pET24b), E. coli Rosetta 2(DE3); about 19 kDa subunit, 41 kDa homodimer
B2: Agrobacterium tumefaciens nicotinamide mononucleotide (NMN) deamidase (enzyme)
chain: B1 chain
notes: NMN deamidase CinA of Agrobacterium tumefaciens, UniProt A9CJ26, 169 amino acids; 510 bp synthetic gene cloned between NheI and XhoI of pET24b; Cloning at the NheI and XhoI sites may add a few vector residues; also called AtCinA; CinA

How the values were obtained:
purified protein = substrate: NC(=O)c1ccc[n+]([C@@H]2O[C@H](COP(=O)(O)O)[C@@H](O)[C@H]2O)c1; assay: purified protein; format: biochemical, Agrobacterium fabrum; conditions: 50 mM sodium phosphate pH 7.5, 37 °C
[1] = molecular target: the molecule itself; assay: SEC; gel filtration on Superdex 200 10/300 GL of the purified enzyme; about 41 kDa against about 19 kDa by SDS-PAGE

| Protein | Km (purified protein) [µM] | kcat (purified protein) [s⁻¹] | kcat/Km (purified protein) [M⁻¹ s⁻¹] | stoichiometry N [1] |
| --- | --- | --- | --- | --- |
| B1 | 24 ± 2 | 8.7 ± 0.2 | 362000 |  |
| B2 |  |  |  | 2 |
